Positions count from the first letter of the chain named. Ends that are not written are not given here.
T1: corticotropin releasing factor 2 receptor
T1 sequence (Q13324 whole entry, species assumed, looked up): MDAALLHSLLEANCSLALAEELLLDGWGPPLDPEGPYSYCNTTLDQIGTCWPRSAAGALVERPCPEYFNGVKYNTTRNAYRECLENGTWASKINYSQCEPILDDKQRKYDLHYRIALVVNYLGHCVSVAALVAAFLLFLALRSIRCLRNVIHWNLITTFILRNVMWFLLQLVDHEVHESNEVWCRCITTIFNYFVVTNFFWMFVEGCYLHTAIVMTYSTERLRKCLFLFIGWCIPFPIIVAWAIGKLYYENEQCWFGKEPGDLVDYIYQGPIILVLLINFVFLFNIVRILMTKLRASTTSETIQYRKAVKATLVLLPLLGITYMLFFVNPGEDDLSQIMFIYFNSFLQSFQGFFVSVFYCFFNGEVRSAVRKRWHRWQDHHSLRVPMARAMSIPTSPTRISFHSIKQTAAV

B1: SEQ ID NO 387 (peptide)
peptide: DNPSLSIDVPLYLLRTLLELEKTQSQRERAEQNARIFARV-NH2
B2: SEQ ID NO 385 (peptide)
peptide: DNPSLSIDVPLFLLRTLLELEKTQSQRERAEQNARIFARV-NH2
B3: SEQ ID NO 212 (peptide)
peptide: ZGPPISIDLPHQLLRKMIEIEKQEKEKQQAANNRLLLDTI
modifications: C-terminal amide
B4: SEQ ID NO 219 (peptide)
peptide: B3 peptide with Q12F
modifications: C-terminal amide
B5: SEQ ID NO 215 (peptide)
peptide: B3 peptide with H11Y, Q12W
modifications: C-terminal amide
B6: SEQ ID NO 222 (peptide)
peptide: B3 peptide with H11A, Q12F
modifications: C-terminal amide
B7: SEQ ID NO 221 (peptide)
peptide: B3 peptide with H11Q, Q12F
modifications: C-terminal amide
B8: SEQ ID NO 213 (peptide)
peptide: B3 peptide with H11Q, Q12W
modifications: C-terminal amide
B9: SEQ ID NO 223 (peptide)
peptide: B3 peptide with H11F, Q12F
modifications: C-terminal amide
B10: SEQ ID NO 225 (peptide)
peptide: B3 peptide with H11Y, Q12Y, R34A, D38A
modifications: C-terminal amide
B11: SEQ ID NO 228 (peptide)
peptide: B3 peptide with H11F, Q12H, R34A
modifications: C-terminal amide
B12: SEQ ID NO 224 (peptide)
peptide: B3 peptide with H11Q, Q12Y, R34A
modifications: C-terminal amide
B13: SEQ ID NO 226 (peptide)
peptide: B3 peptide with H11Y, Q12Y, R34A
modifications: C-terminal amide
B14: SEQ ID NO 227 (peptide)
peptide: B3 peptide with H11Q, Q12Y, R34A, D38A
modifications: C-terminal amide
B15: SEQ ID NO 218 (peptide)
peptide: B3 peptide with H11L, Q12W
modifications: C-terminal amide
B16: SEQ ID NO 220 (peptide)
peptide: B3 peptide with H11Y, Q12F
modifications: C-terminal amide
B17: SEQ ID NO 217 (peptide)
peptide: B3 peptide with H11F, Q12W
modifications: C-terminal amide
B18: SEQ ID NO 216 (peptide)
peptide: B3 peptide with H11W, Q12W
modifications: C-terminal amide
B19: SEQ ID NO 214 (peptide)
peptide: IVLSLDVVIGLLQILLEQARARAAREQATTNARILARV-NH2
B20: SEQ ID NO 386 (peptide)
peptide: DNPSLSIDVPFFLLRTLLELEKTQSQRERAEQNARIFARV-NH2
B21: SEQ ID NO 384 (peptide)
peptide: DNPSLSIDVPLLLLRTLLELEKTQSQRERAEQNARIFARV-NH2
B22: SEQ ID NO 381 (peptide)
peptide: ZGPPISIDVPLQLLRKVIEIEKQEKEKQQAANNARLLARI
modifications: C-terminal amide
B23: SEQ ID NO 382 (peptide)
peptide: B22 peptide with L11F, A38D, R39T
modifications: C-terminal amide
B24: SEQ ID NO 383 (peptide)
peptide: B22 peptide with L11F
modifications: C-terminal amide

Target: corticotropin releasing factor 1 receptor
Experiment: cell-based or functional assay

Binder	CRF1R EC50	CRF1R Emax %
B1	1000 nM	50.1%
B2	1000 nM	46%
B3	445 nM	100%
B4	80.9 nM	100%
B5	188 nM	100%
B6	384 nM	95%
B7	236 nM	100%
B8	1000 nM	76%
B9	48.1 nM	81%
B10	220 nM	97%
B11	276 nM	100%
B12	1000 nM	27%
B13	315 nM	95%
B14	918 nM	18%
B15	98.4 nM	100%
B16	63.6 nM	81%
B17	94.7 nM	100%
B18	49.8 nM	98%
B19	100 nM	4%
B20	1000 nM	78.2%
B21	1000 nM	70.3%
B22	1000 nM	27%
B23	1000 nM	8%
B24	1000 nM	55%

Target: T1, corticotropin releasing factor 2 …
Experiment: cell-based or functional assay

Binder	CRF2R EC50	CRF2R Emax %
B1	17.9 nM	100%
B2	10.2 nM	100%
B3	21.3 nM	100%
B4	7.8 nM	98%
B5	4 nM	100%
B6	9.4 nM	100%
B7	8.5 nM	100%
B8	22.3 nM	99%
B9	3 nM	92%
B10	4.8 nM	89%
B11	7.1 nM	100%
B12	26.9 nM	100%
B13	7.6 nM	100%
B14	33.6 nM	95%
B15	4.8 nM	96%
B16	4.1 nM	98%
B17	4.7 nM	95%
B18	9.9 nM	90%
B19	74.3 nM	60%
B20	8.7 nM	96%
B21	7.1 nM	97.3%
B22	12.7 nM	99%
B23	39.5 nM	100%
B24	9.31 nM	96%
